{"source": "patent US6841359", "about": "(GENERAL HOSPITAL, dated 2005)", "binders": {"B1": {"name": "SB6 (peptide)", "peptide": "MDEKTHWLNNFEELLARLDGLREGEDHPLVLRHHPQGDGLLDQPLGRHRALDGEVREGDRPLDQGGEEDLGALVDDDGEVLDGLVHVGVHVHDPLVCGCHHH", "modifications": "C-terminus joined through puromycin to a short DNA oligonucleotide (DNA-tagged peptide); 35S-methionine label", "notes": "also called peptide SB6"}, "B2": {"name": "SB5 (peptide)", "peptide": "MDEKTHWVNVYHPQGDLLVRGHGHDVEALHDQGLHQLDLLVGPPPEVVRALRGEVLGGLRRLVPLDHPQGEALDQARQRPQHLLELHHRALPPALVWRLPPS", "modifications": "C-terminus joined through puromycin to a short DNA oligonucleotide (DNA-tagged peptide); 35S-methionine label", "notes": "also called peptide SB5"}, "B3": {"name": "Non-selected peptide with two HPQ motifs spaced by 19 residues (peptide)", "peptide": "MDEAHPQAGPVDQADARLVQQGALQHHPQGDRMMSGGCKLGTGY-{puromycin-DNA oligonucleotide}", "modifications": "reading uncertain; also: C-terminus joined through puromycin to a short DNA oligonucleotide (DNA-tagged peptide), 35S-methionine label", "notes": "also called non-selected clone; control peptide"}, "B4": {"name": "SB4 (peptide)", "peptide": "MDEKTHWGISTWRGEPLLHHPQAGRLPLDRRRARHRRILGAEPGGVDHGLRLELLDDHRPLVPDHHPQRGPLQRGDLPQVVPLVRLRHAHVLGLGLAAATIT", "modifications": "C-terminus joined through puromycin to a short DNA oligonucleotide (DNA-tagged peptide); 35S-methionine label", "notes": "also called peptide SB4"}, "B5": {"name": "SB7 (peptide)", "peptide": "MDEKTHWFGTLNSFPTHWMSAVGNGKIDCSFNMNLSLNHWLSSGHPDGALDDQLHPQGDALVGRDDGVVQALRLEGQHQHRRLAQRRADRHRQLVWRLPPS", "modifications": "C-terminus joined through puromycin to a short DNA oligonucleotide (DNA-tagged peptide); 35S-methionine label", "notes": "also called peptide SB7"}, "B6": {"name": "SB19 C-terminal truncation construct C2 (peptide)", "peptide": "MDEKTTGWRGGHVVEGLAGELEQLRARLEHHPQGQREPLVQEVEDVDEGLVQDLHGVVAGLLDPVEMMSGGCKLG", "modifications": "C-terminus joined through puromycin to a short DNA oligonucleotide (DNA-tagged peptide); 35S-methionine label"}, "B7": {"name": "N2 (peptide)", "peptide": "MDEGLAGELEQLRARLEHHPQGQREPLVQEVEDVDEGLVQDLHGVVAGLLDPVEKLLTDWFKKFKNVSKDCKMTFYLEMYDWSGGCKLG", "notes": "One member of the group m27; Assayed as a DNA-tagged peptide"}, "B8": {"name": "SB8 (peptide)", "peptide": "MDEKTHCTIELNFSFTHWKLHHHPQGDALLDDGVRPHHPLADEGGGLDQGLGHRRGVVAERLARRDPEVLEGLVERHRGLVPRLRHGGERHAEPLVWRLPPS", "modifications": "C-terminus joined through puromycin to a short DNA oligonucleotide (DNA-tagged peptide); 35S-methionine label", "notes": "also called peptide SB8"}, "B9": {"name": "SB19 C-terminal truncation construct C1 (peptide)", "peptide": "MDEKTTGWRGGHVVEGLAGELEQLRARLEHHPQGQREPLVQEVEDVDEGLVQDLHGVVAGLLDPVEKLLTDWFKKFKNVSMMSGGCKLG", "modifications": "C-terminus joined through puromycin to a short DNA oligonucleotide (DNA-tagged peptide); 35S-methionine label"}, "B10": {"name": "SB3 (peptide)", "peptide": "MTRRPTASSSSCVRHLLLRQGEHGHQALEDRDKARHVRLVEGDVEVLGGLDRLARARHEALHPQAGLVHLPLHGGDLGGHLRLVLEAHPQGDRLGLAVHHH", "modifications": "C-terminus joined through puromycin to a short DNA oligonucleotide (DNA-tagged peptide); 35S-methionine label", "notes": "also called peptide SB3"}, "B11": {"name": "SB2 (peptide)", "peptide": "MDEKTHCFHPGDHLVRLVEELQALAEGLQRQGGRQPHRLPRRRPHHLQLLLDEAHPQAGPLRERAHQVDGRLLLQHHPQGDRLLQQPQDHPLELVWRLPPS", "modifications": "C-terminus joined through puromycin to a short DNA oligonucleotide (DNA-tagged peptide); 35S-methionine label", "notes": "also called peptide SB2; clone SB2"}, "B12": {"name": "SB19 C-terminal truncation construct C3 (peptide)", "peptide": "MDEKTTGWRGGHVVEGLAGELEQLRARLEHHPQGQREPLVQEVEDVDEGLVQMMSGGCKLG-{puromycin-DNA oligonucleotide}", "modifications": "reading uncertain; also: 35S-methionine label"}, "B13": {"name": "N1 (peptide)", "peptide": "MDGHVVEGLAGELEQLRARLEHHPQGQREPMMSGGCKLG", "notes": "as for B7"}, "B14": {"name": "SB1 (peptide)", "peptide": "MDEKTHCTISMNGAVPLVPHHHPQGDPLRLLHRPQPALLVRHPQGDLVALVEHHEGVDRGLVALPELHAEELGEPVGDLVQGPVEQVQGVVDALVWRLPPS", "modifications": "C-terminus joined through puromycin to a short DNA oligonucleotide (DNA-tagged peptide); 35S-methionine label", "notes": "also called peptide SB1; clone SB1"}}, "key": {"[1]": {"target": "T1, streptavidin (UniProt P22629 37-163, limits assumed)", "T1 construct": "The same protein was used free (EMSA, Biacore, SBIA) and immobilized on a matrix or plate; also called immobilized streptavidin; Ultralink immobilized streptavidin plus", "T1 sequence (P22629 37-163 limits assumed)": "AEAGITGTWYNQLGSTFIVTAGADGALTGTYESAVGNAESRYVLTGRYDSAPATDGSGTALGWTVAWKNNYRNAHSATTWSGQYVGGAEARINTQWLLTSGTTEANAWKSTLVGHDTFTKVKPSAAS", "assay": "streptavidin column-binding assay, 35S DNA-tagged peptide on immobilized streptavidin, biotin elution", "experimental": "(§1) The resulting purified DNA-tagged peptides (DTP) were analyzed in a streptavidin column-binding assay, in which ~500 pM ^35S-labeled DTP were mixed with 50 µL of the streptavidin matrix in streptavidin-binding buffer, in a total volume of 300 µL, and incubated for 10 minutes at room temperature with agitation. Then, the contents were loaded onto a chromatography column. The column was drained and washed with 80 column volumes of streptavidin-binding buffer, and then eluted with three consecutive aliquots (3 column volumes each) of streptavidin-binding buffer plus 2 mM biotin over a 15 minute period. All fractions (flow-through, washes, elutions, and irreversibly bound counts) were analyzed by scintillation counting to determine the fraction of DTP that bound streptavidin and eluted with biotin (Table 1)."}, "[2]": {"target": "T1, streptavidin", "assay": "EMSA, DNA-tagged peptide with free streptavidin; SD 22, n=6", "experimental": "(§2) The dissociation constants of the selected peptides for streptavidin were measuring using an electrophoretic mobility shift assay (EMSA). In this assay, DTP's were incubated with varying amounts of pure streptavidin (Pierce Immunopure Streptavidin, Rockford, Ill.) in streptavidin-binding buffer plus 5% glycerol to increase the density of the solution so that it could collect at the bottom of the gel well. After incubating at room temperature for 20 minutes, the reactions mixtures were moved into the cold room, where they remained for 10 minutes before being carefully loaded onto a 10% polyacrylamide:bisacrylamide (37.5:1, National Diagnostics, Atlanta, Ga.) gel (thickness 0.7 mm, height 16 cm, width 18 cm) containing 2×TBE, 0.1% Triton X-100 and 5% glycerol. The gel, which had been pre-run for 30 minutes at 13 watts, and the running buffer were pre-cooled to 4° C. Then, the gel was run in the cold room at 13 watts, which increased the temperature of the gel to about 20° C. The gel was run for 45 to 120 minutes, depending on the mobility of the particular DTP. Then, the gel was fixed in 10% acetic acid and 10% methanol for 15 minutes, transferred to electrophoresis paper (Ahlstrom, Mt. Holly Springs, Pa.), dried, and analyzed using a PhosphorImager (Molecular Dynamics, Sunnyvale, Calif.)."}, "[3]": {"target": "T1, streptavidin", "assay": "streptavidin column-binding assay: 35S-labeled DNA-tagged peptide bound to immobilized streptavidin and eluted with biotin", "experimental": "as §1"}, "[4]": {"target": "T1, streptavidin", "assay": "streptavidin column-binding assay, M1 (HPQ to HGA) compared to C4", "experimental": "as §1"}, "[5]": {"target": "T1, streptavidin", "assay": "EMSA, DNA-tagged peptide with free streptavidin; SD 0.91, n=8", "experimental": "as §2"}, "[6]": {"target": "T1, streptavidin", "assay": "EMSA, DNA-tagged peptide with free streptavidin; SD 5.7, n=4", "experimental": "as §2"}}, "note": "Where no end group is shown, it is not given here. The star is where a group is joined. puromycin = COc1ccc(C[C@H](N*)C(=O)N[C@H]2[C@@H](O)[C@H](n3cnc4c(N(C)C)ncnc43)O[C@@H]2CO)cc1; DNA oligonucleotide = not defined here"}
{"binder": "B1", "values": [{"measurement": "% binding and eluting", "setting": "[1]", "value": 49, "unit": "%"}]}
{"binder": "B2", "values": [{"measurement": "% binding and eluting", "setting": "[1]", "value": 72, "unit": "%"}, {"measurement": "Kd", "setting": "[2]", "value": 110, "unit": "nM"}]}
{"binder": "B3", "values": [{"measurement": "% binding and eluting", "setting": "[1]", "value": 0.16, "unit": "%"}]}
{"binder": "B4", "values": [{"measurement": "% binding and eluting", "setting": "[1]", "value": 49, "unit": "%"}]}
{"binder": "B5", "values": [{"measurement": "% binding and eluting", "setting": "[1]", "value": 28, "unit": "%"}]}
{"binder": "B6", "values": [{"measurement": "% binding", "setting": "[3]", "value": 88, "unit": "%"}]}
{"binder": "MDEKTTGWRGGHVVEGLAGELEQLRARLEHHGAGQREPMMSGGCKLG-{puromycin-DNA oligonucleotide} (reading uncertain; also: 35S-methionine label, also called construct M1)", "note": "[SB19 point mutated peptide M1]", "values": [{"measurement": "% binding", "setting": "[3]", "value": 0.065, "unit": "%"}, {"measurement": "fold reduction of activity against construct C4", "setting": "[4]", "value": "~1000", "unit": "fold"}]}
{"binder": "B7", "values": [{"measurement": "% binding", "setting": "[3]", "value": 30, "unit": "%"}]}
{"binder": "B8", "values": [{"measurement": "% binding and eluting", "setting": "[1]", "value": 27, "unit": "%"}]}
{"binder": "B9", "values": [{"measurement": "% binding", "setting": "[3]", "value": 87, "unit": "%"}]}
{"binder": "B10", "values": [{"measurement": "% binding and eluting", "setting": "[1]", "value": 20, "unit": "%"}]}
{"binder": "B11", "values": [{"measurement": "% binding and eluting", "setting": "[1]", "value": 48, "unit": "%"}, {"measurement": "Kd", "setting": "[5]", "value": 4.8, "unit": "nM"}]}
{"binder": "B12", "values": [{"measurement": "% binding", "setting": "[3]", "value": 89, "unit": "%"}]}
{"binder": "B13", "values": [{"measurement": "% binding", "setting": "[3]", "value": 69, "unit": "%"}]}
{"binder": "B14", "values": [{"measurement": "% binding and eluting", "setting": "[1]", "value": 86, "unit": "%"}, {"measurement": "Kd", "setting": "[6]", "value": 50, "unit": "nM"}]}
